# Data from patent US20060263849A1, “Glucagon-like peptide-1 analogs” (priority 2000, published 2006).
# Values joined by “and” are separate entries in the source; they are usually repeats but may differ in a detail not shown here. Equal values may be shown once. Where no end group is shown, it is not given here.
# What was measured:
# [1] = GLP Aggregation Assay (time to onset of aggregation, turbidity at 350 nm); assay type: physicochemical; details: for Aggregation Time: 0.3 mg/mL in 10 mM citrate, 10 mM phosphate, 150 mM NaCl, pH 7.4 to 7.5, 37° C., stirred, turbidity at 350 nm
# Method: GLP peptides of this invention were analyzed with respect to their potential to aggregate in solution. In general, peptides in solution were stirred at elevated temperature in a suitable buffer while recording turbidity at 350 nm as a function of time. Time to the onset of aggregation was measured to quantify the potential of a given GLP molecule to aggregate under these stressed conditions.
# A GLP-1 compound was first dissolved under alkaline conditions (pH 10.5) for 30 minutes to dissolve any pre-aggregated material. The solution was then adjusted to pH 7.4 and filtered. Specifically, 4 mg of a lyophilized GLP-1 compound was dissolved in 3 ml of 10 mM phosphate/10 mM citrate. The pH was adjusted to 10.0-10.5 and held for 30 minutes. The solution was adjusted with HCl to pH 7.4 and filtered through a suitable filter, for example a Millex GV syringe filter (Millipore Corporation, Bedford, Mass.). This solution was then diluted to a final sample containing 0.3 mg/mL protein in 10 mM citrate, 10 mM phosphate, 150 mM NaCl, and adjusted to pH 7.4 to 7.5. […] Every five minutes the turbidity of the solution was measured at 350 nm on an AVIV Model 14DS UV-VIS spectrophotometer (Lakewood, N.J.). For 30 seconds prior to and during the measurement the solution was stirred using a magnetic stir bar from Starna Cells, Inc. (Atascadero, Calif.). An increase in OD at 350 nm indicates aggregation of the GLP-peptide. The time to aggregation was approximated by the intersection of linear fits to the pre-growth and growth phase according to method of Drake (Arvinte T, Cudd A, and Drake A F. (1993) J. Bio. Chem. 268, 6415-6422).
# The cuvette was cleaned between experiments with a caustic soap solution (e.g., Contrad-70).
# The results for a number of GLP-1 compounds of the present invention are reported in Table 1 as the time in hours required for the compound to aggregate.
# [2] = Zinc precipitation of GLP-1 compounds (A280 of supernatant); assay type: physicochemical; details: HEPES pH 7.4, 22° C., 18 hours
# Method: Individual GLP-1 compounds were prepared as described in Examples 1 or 2. 3 mg of an individual lyophilized GLP molecule was dissolved in 3 ml 0.1 M HEPES buffer pH 10.5. The pH of the resulting solution was then adjusted to between 10.0 and 10.5 with 0.2 N NaOH. The solution was stirred at ambient temperature for 30 minutes and the solution was then adjusted to a pH of 7.4 with 0.2 N HCl. The solution was filtered through an appropriate syringe filter, for example a Millex GV syringe filter (Millipore Corporation, Bedford, Mass.), and the concentration of the GLP-1 compound was estimated by measuring the absorption at 280 nm in a spectrophotometer, for example a Beckman DU640. The protein concentration was then adjusted to 200 μM in HEPES pH 7.4.
# The filtered GLP-1 solutions (100 μl) were diluted with 100 μl of 0.1 M HEPES pH 7.4 containing various levels of zinc chloride in an ELISA plate, (e.g. Falcon Microtest™ 96) resulting in 200 μl of solution containing various levels of zinc chloride and 100 μM GLP-1 compounds. These solutions were incubated at ambient temperature (22° C.) for 18 hours and then centrifuged, for example, in a Jouan CR412 centrifuge with microplate adapters. 150 μl of the supernatants after centrifugation were then transferred to a UV-readable ELISA microtiter plate (e.g. Costar UV plate) and the OD at 280 was determined in a microplate reader (e.g. Molecular Devices SPECTRAmax PLUS, SOFTmax PRO). A280 values are the result of two independent determinations.
# GLP-1 receptor = GLP-1 receptor activation, in vitro assays; assay type: cell-based; details: for GLP-1 Receptor Activation: activity relative to the activity of GLP-1(7-37)OH
# From the text: “Insulinotropic activity” refers to stimulating insulin secretion in response to elevated glucose levels, thereby causing glucose uptake by cells and decreased serum glucose levels. Insulinotropic activity can be assessed by methods known in the art, including using in vivo experiments and in vitro assays that measure GLP-1 receptor binding activity or receptor activation, e.g., assays employing pancreatic islet cells or insulinoma cells, as described in EP 619,322 to Gelfand, et al., and U.S. Pat. No. 5,120,712, respectively. The entire teachings of these references are incorporated herein by reference.
# The ability of the GLP-1 compounds of the present invention to activate the GLP-1 receptor was assessed using in vitro assays such as those described in EP 619,322 to Gelfand, et al., and U.S. Pat. No. 5,120,712, respectively. The entire teachings of these references are incorporated herein by reference.
# [3] = Zn/GLP-1 molar ratio 0, 100 μM GLP-1 compound
# [4] = Zn/GLP-1 molar ratio 0.3, 100 μM GLP-1 compound
# [5] = Zn/GLP-1 molar ratio 0.5, 100 μM GLP-1 compound
# [6] = Zn/GLP-1 molar ratio 0.7, 100 μM GLP-1 compound
# [7] = Zn/GLP-1 molar ratio 1, 100 μM GLP-1 compound
# [8] = Zn/GLP-1 molar ratio 2, 100 μM GLP-1 compound
# [9] = Zn/GLP-1 molar ratio 3, 100 μM GLP-1 compound
# [10] = Zn/GLP-1 molar ratio 5, 100 μM GLP-1 compound
Substance,GLP-1 Receptor Activation (GLP-1 receptor),GLP-1 receptor activation greater than GLP-1(7-37)OH (GLP-1 receptor; relative to GLP-1(7-37)OH),Aggregation Time [1],"A280 [2, 3]","A280 [2, 4]","A280 [2, 5]","A280 [2, 6]","A280 [2, 7]","A280 [2, 8]","A280 [2, 9]","A280 [2, 10]",aggregation time compared with GLP-1(7-37)OH ([1]; relative to GLP-1(7-37)OH)
Val^8-Asp^22-GLP-1(7-37)OH (HVEGTFTSDVSSYLEDQAAKEFIAWLVKGRG),0.40,–,>90 h,0.288,0.2785,0.2845,0.287,0.291,0.184,0.1485,0.1675,–
Val^8-Glu^22-GLP-1(7-37)OH (HVEGTFTSDVSSYLEEQAAKEFIAWLVKGRG),1.29,about 25%,72 h,0.295,0.291,0.292,0.293,0.26,0.078,0.052,0.035,over twenty fold greater
Val^8-Leu^16-Glu^26-GLP-1(7-37)OH (HVEGTFTSDLSSYLEGQAAEEFIAWLVKGRG),0.23,–,>20 h,–,–,–,–,–,–,–,–,–
Val^8-Lys^11-GLP-1(7-37)OH (HVEGKFTSDVSSYLEGQAAKEFIAWLVKGRG),0.001,–,13 h,–,–,–,–,–,–,–,–,–
Val^8-Lys^22-Glu^23-GLP-1(7-37)OH (HVEGTFTSDVSSYLEKEAAKEFIAWLVKGRH),0.35,–,>30 h,–,–,–,–,–,–,–,–,–
Val^8-Lys^22-Glu^30-GLP-1(7-37)OH (HVEGTFTSDVSSYLEKQAAKEFIEWLVKGRG),0.37,–,4 h,–,–,–,–,–,–,–,–,–
Val^8-Lys^23-GLP-1(7-37)OH (HVEGTFTSDVSSYLEGKAAKEFIAWLVKGRG),0.18,–,>45 h,–,–,–,–,–,–,–,–,–
Val^8-Lys^24-GLP-1(7-37)OH (HVEGTFTSDVSSYLEGQKAKEFIAWLVKGRG),0.02,–,22 h,–,–,–,–,–,–,–,–,–
Val^8-Lys^33-Asn^34-GLP-1(7-37)OH,0.09,–,>48 h,–,–,–,–,–,–,–,–,–
Val^8-Lys^33-Val^34-GLP-1(7-37)OH (HVEGTFTSDVSSYLEGQAAKEFIAWLKVGRG),0.08,–,22 h,–,–,–,–,–,–,–,–,–
Val^8-Pro^22-GLP-1(7-37)OH (HVEGTFTSDVSSYLEPQAAKEFIAWLVKGRG),0.01,–,>75 h,0.2595,0.2455,0.2325,0.219,0.1905,0.1695,0.1615,0.171,–
Val^8-Pro^35-GLP-1(7-37)OH (HVEGTFTSDVSSYLEGQAAKEFIAWLVKPRG),0.094,–,14 h,–,–,–,–,–,–,–,–,–
Val^8-Ser^30-GLP-1(7-37)OH (HVEGTFTSDVSSYLEGQAAKEFISWLVKGRG),0.19,–,8 h,–,–,–,–,–,–,–,–,–
Val^8-Tyr^12-GLP-1(7-37)OH (HVEGTYTSDVSSYLEGQAAKEFIAWLVKGRG),0.81,–,6 h,–,–,–,–,–,–,–,–,–

# Now from value to substance, other results behind:
GLP-1 Receptor Activation (GLP-1 receptor),GLP-1 receptor activation greater than GLP-1(7-37)OH (GLP-1 receptor; relative to GLP-1(7-37)OH),Substance,Aggregation Time [1],"A280 [2, 3]","A280 [2, 4]","A280 [2, 5]","A280 [2, 6]","A280 [2, 7]","A280 [2, 8]","A280 [2, 9]","A280 [2, 10]",aggregation time compared with GLP-1(7-37)OH ([1]; relative to GLP-1(7-37)OH)
0.42,–,Gln^22-GLP-1(7-37)OH (HAEGTFTSDVSSYLEQQAAKEFIAWLVKGRG),7 h,0.290,0.390,0.123,0.076,0.074,0.095,0.095,0.097,–
0.56,–,Val^8-Ala^22-GLP-1(7-37)OH (HVEGTFTSDVSSYLEAQAAKEFIAWLVKGRG),19 h,0.289,0.202,0.107,0.104,0.110,0.110,0.104,0.119,–
0.33,–,Val^8-Lys^20-GLP-1(7-37)OH (HVEGTFTSDVSSYKEGQAAKEFIAWLVKGRG),5 h,–,–,–,–,–,–,–,–,–
0.53,–,Val^8-Lys^22-GLP-1(7-36)NH2 (HVEGTFTSDVSSYLEKQAAKEFIAWLVKGR-NH2),24 h,–,–,–,–,–,–,–,–,–
0.58,–,Val^8-Lys^22-GLP-1(7-37)OH (HVEGTFTSDVSSYLEKQAAKEFIAWLVKGRG),100 h and 54 h,0.299,0.0825,0.0905,0.1195,0.1225,0.1675,0.1475,0.142,–
0.50,–,Val^8-Ser^22-GLP-1(7-37)OH (HVEGTFTSDVSSYLESQAAKEFIAWLVKGRG),22 h,0.2855,0.2805,0.2665,0.1825,0.149,0.0935,0.101,0.0615,–
1.175,–,Val^8-Tyr^16-GLP-1(7-37)OH (HVEGTFTSDYSSYLEGQAAKEFIAWLVKGRG),5 h,–,–,–,–,–,–,–,–,–
